How the values were obtained:
[1] = target: recombinant human CD36 (human), P16671; assay: BLI; Octet Qke; hisCD36 immobilised on Ni-NTA biosensors, CIDR domains in solution; kinetics buffer (PBS, 0.02% Tween-20, 100 μg/ml bovine serum albumin, 0.005% sodium azide); association 600 or 900 s, dissociation 300 to 600 s; 1:1 fit
[2] = target: recombinant human CD36 (human), P16671; assay: BLI; Octet Qke; hisCD36 immobilised on Ni-NTA biosensors, CIDR domain in kinetics buffer (PBS, 0.02% Tween-20, 100 ug/ml BSA, 0.005% sodium azide); association 600 or 900 s, dissociation 300 to 600 s; double-reference subtracted data fitted to a 1:1 binding model

recombinant human CD36 (human), P16671, sequence (P16671 whole entry, the tested form may be a part): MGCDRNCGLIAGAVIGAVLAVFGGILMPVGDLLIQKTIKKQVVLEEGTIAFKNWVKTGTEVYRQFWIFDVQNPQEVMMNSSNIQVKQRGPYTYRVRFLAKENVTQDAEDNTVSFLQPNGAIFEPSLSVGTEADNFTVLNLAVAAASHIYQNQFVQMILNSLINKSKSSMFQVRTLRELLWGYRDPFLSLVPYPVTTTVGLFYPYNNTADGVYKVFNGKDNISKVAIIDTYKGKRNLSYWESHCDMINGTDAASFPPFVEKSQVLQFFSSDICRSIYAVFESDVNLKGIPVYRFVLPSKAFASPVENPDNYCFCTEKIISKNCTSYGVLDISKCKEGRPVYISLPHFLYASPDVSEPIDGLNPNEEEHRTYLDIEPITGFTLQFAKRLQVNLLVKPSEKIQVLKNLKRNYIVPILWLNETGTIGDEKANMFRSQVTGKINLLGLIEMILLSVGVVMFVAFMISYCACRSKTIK

B1: P. reichenowi var85 CIDRα5 (domain or fragment)
chain: PECGVVRNGGTFQKNDEKEGDCSGKNEEYKPPEGVTEHDINFLYSGEGHEDMTKKLSGFCKKPEDKKGTRNEQWKCYYEKAENNMCKMTNKGANDNEHAKMMSFNDFFNFWVSHLLTDTINWRKELNRCIKASKSETCEKKCNKNCKCFQKWIEKKKVEWEEVKDQYDEQKDMDIFNPYWILEYDLEEQLLPIMEKNNSDLELIGKMKEIIGKNYKNKELKRTDVNAIDILLKHELKDATTCVENDPQENC
modifications: not checked
Kd [1]: 1.7 nM
koff [2]: 3.42e-05 s⁻¹
kon [2]: 19800 M⁻¹ s⁻¹
